Test results from the supplement of paper PMC10724198.
± gives the standard deviation of the averaged measurements.

System: Saccharomyces cerevisiae
Assay: protein stability index of tFT-peptide fusion (C-terminal peptide) (PSI (0-1 scale)); higher = more stable (slower turnover)
Settings: genetic background: cdc34-1; temperature: 37 C
Procedure: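 MPS profiling in S. cerevisiae of the tFT-X12 degron library: putative degron peptides plus stable controls, 12 aa, fused to the C-terminus of a sfGFP-mCherry timer. Cells are FACS-sorted into 8 mCherry/sfGFP bins and deep-sequenced. PSI runs from 0 (unstable) to 1 (stable). Backgrounds are wild type, das1Δ and doa10Δ at 30 °C, and wild type, das1Δ, cdc34-1 and cdc53-1 at 37 °C; 2-3 technical replicates each.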
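Also: PSI is a weighted mean of sequencing reads over stability bins, variants kept only with over 10 reads, mCherry proximal and sfGFP distal, peptide attached via GGGS linker.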

Sequence	protein stability index
ACGGGSNVHRAG	0.665 ± 0.028
ACVRLVLCVCRV	0.281 ± 0.011
ACVWVVALVWVF	0.121 ± 0.005
AEVLCEIVIALR	0.582 ± 0.011
AFFFCVVVLFSF	0.194 ± 0.0078
AFFRCKCYVGTP	0.568 ± 0.011
AFTFLLCWLFGV	0.622 ± 0.024
AFVALCACVIFV	0.175 ± 0.015
AGGVNWWSSWRV	0.739 ± 0.049
AGMLMCLYLFFV	0.562 ± 0.05
AIMFLVLGYVFF	0.262 ± 0.085
ALCPPLPMLVVA	0.02987 ± 0.00016
ALLMVCFGFSLV	0.445 ± 0.022
ALNFFSLFMLFR	0.221 ± 0.058
ALSRFFSVFLLV	0.592 ± 0.013
ASVCLNVIYQLV	0.515 ± 0.024
AVLFAPPLSSNF	0.712 ± 0.03
AVSFVTLSIMVM	0.0451 ± 0.007
AWVEVYVISIGV	0.192 ± 0.024
CAGLLSVSFWLF	0.516 ± 0.024
CFATTCLRCKWV	0.692 ± 0.038
CFCVSVHVWLLM	0.112 ± 0.028
CFFLLLRVSLFP	0.08149 ± 0.00038
CFSLLFYTLSLL	0.47 ± 0.029
CFVICVCLCFGR	0.229 ± 0.044
CGSLDLPHQCLL	0.7247 ± 0.0066

Sequence	protein stability index
CICAFCSLNLLC	0.695 ± 0.01
CIHMNCSMMIIS	0.0533 ± 0.045
CKGPPVKFIVLM	0.614 ± 0.018
CKYCKCVVLLWS	0.53 ± 0.052
CLFFLVYELSIL	0.256 ± 0.017
CLQYRACLILLT	0.406 ± 0.014
CLSGPFRSLAVF	0.545 ± 0.029
CMILVACFYLPS	0.285 ± 0.033
CMYTILRHKINN	0.628 ± 0.047
CPVSRHLLVLYW	0.413 ± 0.0094
CQVSEWIRYRFL	0.681 ± 0.074
CRAAMYSFFLNF	0.674 ± 0.063
FFSFLFLLLFGA	0.566 ± 0.016
FPPCSFLGFLVF	0.69 ± 0.027
GAVGRWGWVSFV	0.699 ± 0.038
GFTIFFFFFFFV	0.227 ± 0.043
GPPPPPSLLLLC	0.6 ± 0.04
GVAVVWVGLGVT	0.325 ± 0.011
LDVGGRRGGEHC	0.598 ± 0.071
LFVLVLLCWMLT	0.347 ± 0.038
LWGVGFLFVLVG	0.1858 ± 0.0014
PHSMRTTTIMCS	0.357 ± 0.034
RPPPAANFTRSS	0.655 ± 0.022
YGETRGGGRGRW	0.587 ± 0.049
YVFSPLSCWASV	0.692 ± 0.056

Same assay, conditions: genetic background: cdc53-1; temperature: 37 C

Sequence	protein stability index
ACGGGSNVHRAG	0.7248 ± 0.0067
ACVRLVLCVCRV	0.341 ± 0.042
ACVWVVALVWVF	0.249 ± 0.041
AEVLCEIVIALR	0.675 ± 0.063
AFFFCVVVLFSF	0.233 ± 0.013
AFFRCKCYVGTP	0.584 ± 0.046
AFTFLLCWLFGV	0.671 ± 0.01
AFVALCACVIFV	0.249 ± 0.026
AGGVNWWSSWRV	0.767 ± 0.0082
AGMLMCLYLFFV	0.661 ± 0.047
AIMFLVLGYVFF	0.395 ± 0.018
ALCPPLPMLVVA	0.03 ± 0.0043
ALLMVCFGFSLV	0.5162 ± 0.0013
ALNFFSLFMLFR	0.168 ± 0.07
ALSRFFSVFLLV	0.671 ± 0.009
ASVCLNVIYQLV	0.451 ± 0.0053
AVLFAPPLSSNF	0.78169 ± 0.00024
AVSFVTLSIMVM	0.0958 ± 0.092
AWVEVYVISIGV	0.257 ± 0.0074
CAGLLSVSFWLF	0.589 ± 0.037
CFATTCLRCKWV	0.738 ± 0.035
CFCVSVHVWLLM	0.238 ± 0.046
CFFLLLRVSLFP	0.112 ± 0.024
CFSLLFYTLSLL	0.499 ± 0.0054
CFVICVCLCFGR	0.3626 ± 0.002
CGSLDLPHQCLL	0.7844 ± 0.0062

Sequence	protein stability index
CICAFCSLNLLC	0.774 ± 0.016
CIHMNCSMMIIS	0.084 ± 0.0027
CKGPPVKFIVLM	0.7111 ± 0.0044
CKYCKCVVLLWS	0.605 ± 0.013
CLFFLVYELSIL	0.352 ± 0.048
CLQYRACLILLT	0.3653 ± 0.0014
CLSGPFRSLAVF	0.6286 ± 0.0025
CMILVACFYLPS	0.441 ± 0.061
CMYTILRHKINN	0.621 ± 0.075
CPVSRHLLVLYW	0.4424 ± 0.0029
CQVSEWIRYRFL	0.743 ± 0.01
CRAAMYSFFLNF	0.75 ± 0.017
FFSFLFLLLFGA	0.643 ± 0.0069
FPPCSFLGFLVF	0.768 ± 0.014
GAVGRWGWVSFV	0.7732 ± 0.0059
GFTIFFFFFFFV	0.234 ± 0.018
GPPPPPSLLLLC	0.712 ± 0.0078
GVAVVWVGLGVT	0.445 ± 0.043
LDVGGRRGGEHC	0.646 ± 0.096
LFVLVLLCWMLT	0.462 ± 0.014
LWGVGFLFVLVG	0.268 ± 0.024
PHSMRTTTIMCS	0.444 ± 0.021
RPPPAANFTRSS	0.688 ± 0.024
YGETRGGGRGRW	0.887 ± 0.038
YVFSPLSCWASV	0.74 ± 0.0086

Same assay, conditions: genetic background: das1 deletion; temperature: 30 C

Sequence	protein stability index
ACGGGSNVHRAG	0.657 ± 0.019
ACVRLVLCVCRV	0.237 ± 0.04
ACVWVVALVWVF	0.174 ± 0.035
AEVLCEIVIALR	0.485 ± 0.04
AFFFCVVVLFSF	0.171 ± 0.027
AFFRCKCYVGTP	0.502 ± 0.017
AFTFLLCWLFGV	0.552 ± 0.018
AFVALCACVIFV	0.215 ± 0.039
AGGVNWWSSWRV	0.648 ± 0.015
AGMLMCLYLFFV	0.467 ± 0.032
AIMFLVLGYVFF	0.269 ± 0.03
ALCPPLPMLVVA	0.156 ± 0.019
ALLMVCFGFSLV	0.372 ± 0.032
ALNFFSLFMLFR	0.325 ± 0.041
ALSRFFSVFLLV	0.55 ± 0.019
ASVCLNVIYQLV	0.288 ± 0.027
AVLFAPPLSSNF	0.64 ± 0.014
AVSFVTLSIMVM	0.153 ± 0.016
AWVEVYVISIGV	0.161 ± 0.022
CAGLLSVSFWLF	0.44 ± 0.033
CFATTCLRCKWV	0.645 ± 0.033
CFCVSVHVWLLM	0.199 ± 0.038
CFFLLLRVSLFP	0.143 ± 0.032
CFSLLFYTLSLL	0.393 ± 0.022
CFVICVCLCFGR	0.232 ± 0.018
CGSLDLPHQCLL	0.677 ± 0.0093

Sequence	protein stability index
CICAFCSLNLLC	0.61 ± 0.012
CIHMNCSMMIIS	0.168 ± 0.0061
CKGPPVKFIVLM	0.597 ± 0.03
CKYCKCVVLLWS	0.385 ± 0.037
CLFFLVYELSIL	0.257 ± 0.023
CLQYRACLILLT	0.365 ± 0.015
CLSGPFRSLAVF	0.485 ± 0.031
CMILVACFYLPS	0.29 ± 0.024
CMYTILRHKINN	0.649 ± 0.024
CPVSRHLLVLYW	0.345 ± 0.029
CQVSEWIRYRFL	0.637 ± 0.034
CRAAMYSFFLNF	0.651 ± 0.037
FFSFLFLLLFGA	0.556 ± 0.018
FPPCSFLGFLVF	0.571 ± 0.023
GAVGRWGWVSFV	0.653 ± 0.014
GFTIFFFFFFFV	0.193 ± 0.035
GPPPPPSLLLLC	0.614 ± 0.025
GVAVVWVGLGVT	0.27 ± 0.018
LDVGGRRGGEHC	0.554 ± 0.024
LFVLVLLCWMLT	0.373 ± 0.029
LWGVGFLFVLVG	0.229 ± 0.036
PHSMRTTTIMCS	0.296 ± 0.031
RPPPAANFTRSS	0.665 ± 0.016
YGETRGGGRGRW	0.475 ± 0.034
YVFSPLSCWASV	0.608 ± 0.021

Same assay, conditions: genetic background: das1 deletion; temperature: 37 C

Sequence	protein stability index
ACGGGSNVHRAG	0.767 ± 0.021
ACVRLVLCVCRV	0.4091 ± 0.0036
ACVWVVALVWVF	0.303 ± 0.015
AEVLCEIVIALR	0.583 ± 0.0085
AFFFCVVVLFSF	0.289 ± 0.015
AFFRCKCYVGTP	0.598 ± 0.013
AFTFLLCWLFGV	0.627 ± 0.0065
AFVALCACVIFV	0.362 ± 0.005
AGGVNWWSSWRV	0.775 ± 0.011
AGMLMCLYLFFV	0.598 ± 0.022
AIMFLVLGYVFF	0.462 ± 0.019
ALCPPLPMLVVA	0.0912 ± 0.0067
ALLMVCFGFSLV	0.527 ± 0.0098
ALNFFSLFMLFR	0.422 ± 0.022
ALSRFFSVFLLV	0.6766 ± 0.0044
ASVCLNVIYQLV	0.471 ± 0.013
AVLFAPPLSSNF	0.7729 ± 0.0067
AVSFVTLSIMVM	0.163 ± 0.0065
AWVEVYVISIGV	0.324 ± 0.012
CAGLLSVSFWLF	0.597 ± 0.022
CFATTCLRCKWV	0.739 ± 0.028
CFCVSVHVWLLM	0.342 ± 0.017
CFFLLLRVSLFP	0.257 ± 0.0087
CFSLLFYTLSLL	0.5305 ± 0.0034
CFVICVCLCFGR	0.416 ± 0.015
CGSLDLPHQCLL	0.7545 ± 0.0062

Sequence	protein stability index
CICAFCSLNLLC	0.765 ± 0.011
CIHMNCSMMIIS	0.0659 ± 0.029
CKGPPVKFIVLM	0.7359 ± 0.0039
CKYCKCVVLLWS	0.6012 ± 0.00065
CLFFLVYELSIL	0.434 ± 0.016
CLQYRACLILLT	0.494 ± 0.0041
CLSGPFRSLAVF	0.6326 ± 0.0051
CMILVACFYLPS	0.455 ± 0.017
CMYTILRHKINN	0.763 ± 0.023
CPVSRHLLVLYW	0.4933 ± 0.0031
CQVSEWIRYRFL	0.734 ± 0.018
CRAAMYSFFLNF	0.7584 ± 0.0043
FFSFLFLLLFGA	0.619 ± 0.07
FPPCSFLGFLVF	0.73 ± 0.014
GAVGRWGWVSFV	0.7883 ± 0.0033
GFTIFFFFFFFV	0.266 ± 0.045
GPPPPPSLLLLC	0.721 ± 0.011
GVAVVWVGLGVT	0.474 ± 0.0068
LDVGGRRGGEHC	0.6665 ± 0.0011
LFVLVLLCWMLT	0.42739 ± 0.00025
LWGVGFLFVLVG	0.403 ± 0.039
PHSMRTTTIMCS	0.516 ± 0.0075
RPPPAANFTRSS	0.698 ± 0.012
YGETRGGGRGRW	0.766 ± 0.16
YVFSPLSCWASV	0.7459 ± 0.0044

Same assay, conditions: genetic background: doa10 deletion; temperature: 30 C

Sequence	protein stability index
ACGGGSNVHRAG	0.662 ± 0.045
ACVRLVLCVCRV	0.211 ± 0.015
ACVWVVALVWVF	0.132 ± 0.0086
AEVLCEIVIALR	0.45 ± 0.019
AFFFCVVVLFSF	0.178 ± 0.018
AFFRCKCYVGTP	0.512 ± 0.013
AFTFLLCWLFGV	0.453 ± 0.0068
AFVALCACVIFV	0.178 ± 0.016
AGGVNWWSSWRV	0.6591 ± 0.0032
AGMLMCLYLFFV	0.428 ± 0.0066
AIMFLVLGYVFF	0.255 ± 0.036
ALCPPLPMLVVA	0.109 ± 0.01
ALLMVCFGFSLV	0.335 ± 0.009
ALNFFSLFMLFR	0.603 ± 0.0092
ALSRFFSVFLLV	0.26 ± 0.012
ASVCLNVIYQLV	0.1572 ± 0.0011
AVLFAPPLSSNF	0.657 ± 0.026
AVSFVTLSIMVM	0.135 ± 0.005
AWVEVYVISIGV	0.132 ± 0.0032
CAGLLSVSFWLF	0.351 ± 0.0039
CFATTCLRCKWV	0.425 ± 0.011
CFCVSVHVWLLM	0.0493 ± 0.017
CFFLLLRVSLFP	0.142 ± 0.0027
CFSLLFYTLSLL	0.2695 ± 0.00095
CFVICVCLCFGR	0.206 ± 0.0033
CGSLDLPHQCLL	0.691 ± 0.048
CICAFCSLNLLC	0.289 ± 0.0064
CIHMNCSMMIIS	0.169 ± 0.0045
